Measured values published in the Human Domainome abundance scans (Beltran et al. 2025).
± gives the uncertainty stated by the source.

B1: Triacylglycerol hydrolase DDHD2, residues 389 to 447; numbered along this chain, O94830 (parent)
chain: TLEEDLKKLQLSEFFDIFEKEKVDKEALALCTDRDLQEIGIPLGPRKKILNYFSTRKNS

Variants of: B1
Experiment: abundance fitness (aPCA) (normalised: wild type 0, dead -1); higher = more abundant; growth selection in yeast, the domain comes from the species named
Details: Homo sapiens
For TLEEDPKKLQLSEFFDIFEKEKVDKEALALCTDRDLQEIGIPLGPRKKILNYFSTRKNS [L6P], the abundance fitness was -0.35 ± 0.1. Variant TLEEDQKKLQLSEFFDIFEKEKVDKEALALCTDRDLQEIGIPLGPRKKILNYFSTRKNS [L6Q] has an abundance fitness of -0.336 ± 0.17. Variant TLEEDRKKLQLSEFFDIFEKEKVDKEALALCTDRDLQEIGIPLGPRKKILNYFSTRKNS [L6R] has an abundance fitness of -0.833 ± 0.11. Variant TLEEDSKKLQLSEFFDIFEKEKVDKEALALCTDRDLQEIGIPLGPRKKILNYFSTRKNS [L6S] has an abundance fitness of -0.767 ± 0.13. TLEEDTKKLQLSEFFDIFEKEKVDKEALALCTDRDLQEIGIPLGPRKKILNYFSTRKNS [L6T] showed an abundance fitness of -0.492 ± 0.11. With TLEEDVKKLQLSEFFDIFEKEKVDKEALALCTDRDLQEIGIPLGPRKKILNYFSTRKNS [L6V] the abundance fitness was -1.12 ± 0.11. In the case of TLEEDWKKLQLSEFFDIFEKEKVDKEALALCTDRDLQEIGIPLGPRKKILNYFSTRKNS [L6W], the abundance fitness is reported as -0.45 ± 0.11. TLEEDYKKLQLSEFFDIFEKEKVDKEALALCTDRDLQEIGIPLGPRKKILNYFSTRKNS [L6Y] gave an abundance fitness of -0.675 ± 0.43. In the case of TLEEDLAKLQLSEFFDIFEKEKVDKEALALCTDRDLQEIGIPLGPRKKILNYFSTRKNS [K7A], the abundance fitness is reported as -0.032 ± 0.086. With TLEEDLCKLQLSEFFDIFEKEKVDKEALALCTDRDLQEIGIPLGPRKKILNYFSTRKNS [K7C] the abundance fitness was -0.294 ± 0.2. For TLEEDLEKLQLSEFFDIFEKEKVDKEALALCTDRDLQEIGIPLGPRKKILNYFSTRKNS [K7E], the abundance fitness was -0.017 ± 0.14. For TLEEDLFKLQLSEFFDIFEKEKVDKEALALCTDRDLQEIGIPLGPRKKILNYFSTRKNS [K7F], the abundance fitness was -0.038 ± 0.14. With TLEEDLGKLQLSEFFDIFEKEKVDKEALALCTDRDLQEIGIPLGPRKKILNYFSTRKNS [K7G] the abundance fitness was -0.056 ± 0.089. Variant TLEEDLHKLQLSEFFDIFEKEKVDKEALALCTDRDLQEIGIPLGPRKKILNYFSTRKNS [K7H] has an abundance fitness of -0.07 ± 0.16. In the case of TLEEDLIKLQLSEFFDIFEKEKVDKEALALCTDRDLQEIGIPLGPRKKILNYFSTRKNS [K7I], the abundance fitness is reported as -0.741 ± 0.38. In the case of TLEEDLLKLQLSEFFDIFEKEKVDKEALALCTDRDLQEIGIPLGPRKKILNYFSTRKNS [K7L], the abundance fitness is reported as -0.203 ± 0.074. In the case of TLEEDLMKLQLSEFFDIFEKEKVDKEALALCTDRDLQEIGIPLGPRKKILNYFSTRKNS [K7M], the abundance fitness is reported as -0.424 ± 0.18. In the case of TLEEDLNKLQLSEFFDIFEKEKVDKEALALCTDRDLQEIGIPLGPRKKILNYFSTRKNS [K7N], the abundance fitness is reported as -0.153 ± 0.22. TLEEDLPKLQLSEFFDIFEKEKVDKEALALCTDRDLQEIGIPLGPRKKILNYFSTRKNS [K7P] showed an abundance fitness of -0.689 ± 0.11. In the case of TLEEDLQKLQLSEFFDIFEKEKVDKEALALCTDRDLQEIGIPLGPRKKILNYFSTRKNS [K7Q], the abundance fitness is reported as 0.083 ± 0.12. In the case of TLEEDLRKLQLSEFFDIFEKEKVDKEALALCTDRDLQEIGIPLGPRKKILNYFSTRKNS [K7R], the abundance fitness is reported as 0.108 ± 0.074. TLEEDLSKLQLSEFFDIFEKEKVDKEALALCTDRDLQEIGIPLGPRKKILNYFSTRKNS [K7S] showed an abundance fitness of -0.08 ± 0.077. With TLEEDLTKLQLSEFFDIFEKEKVDKEALALCTDRDLQEIGIPLGPRKKILNYFSTRKNS [K7T] the abundance fitness was -0.196 ± 0.099. With TLEEDLVKLQLSEFFDIFEKEKVDKEALALCTDRDLQEIGIPLGPRKKILNYFSTRKNS [K7V] the abundance fitness was -0.43 ± 0.087. TLEEDLYKLQLSEFFDIFEKEKVDKEALALCTDRDLQEIGIPLGPRKKILNYFSTRKNS [K7Y] showed an abundance fitness of -0.006 ± 0.14. TLEEDLKKLALSEFFDIFEKEKVDKEALALCTDRDLQEIGIPLGPRKKILNYFSTRKNS [Q10A] gave an abundance fitness of -0.22 ± 0.05. Variant TLEEDLKKLCLSEFFDIFEKEKVDKEALALCTDRDLQEIGIPLGPRKKILNYFSTRKNS [Q10C] has an abundance fitness of -0.101 ± 0.078. TLEEDLKKLDLSEFFDIFEKEKVDKEALALCTDRDLQEIGIPLGPRKKILNYFSTRKNS [Q10D] gave an abundance fitness of 0.069 ± 0.099. Work on TLEEDLKKLELSEFFDIFEKEKVDKEALALCTDRDLQEIGIPLGPRKKILNYFSTRKNS [Q10E] yielded an abundance fitness of 0.119 ± 0.061. With TLEEDLKKLFLSEFFDIFEKEKVDKEALALCTDRDLQEIGIPLGPRKKILNYFSTRKNS [Q10F] the abundance fitness was -0.421 ± 0.13. For TLEEDLKKLGLSEFFDIFEKEKVDKEALALCTDRDLQEIGIPLGPRKKILNYFSTRKNS [Q10G], the abundance fitness was -0.131 ± 0.046. TLEEDLKKLHLSEFFDIFEKEKVDKEALALCTDRDLQEIGIPLGPRKKILNYFSTRKNS [Q10H] gave an abundance fitness of -0.138 ± 0.13. With TLEEDLKKLILSEFFDIFEKEKVDKEALALCTDRDLQEIGIPLGPRKKILNYFSTRKNS [Q10I] the abundance fitness was -0.852 ± 0.34. Variant TLEEDLKKLLLSEFFDIFEKEKVDKEALALCTDRDLQEIGIPLGPRKKILNYFSTRKNS [Q10L] has an abundance fitness of -0.52 ± 0.059. Variant TLEEDLKKLMLSEFFDIFEKEKVDKEALALCTDRDLQEIGIPLGPRKKILNYFSTRKNS [Q10M] has an abundance fitness of -0.1 ± 0.074. In the case of TLEEDLKKLNLSEFFDIFEKEKVDKEALALCTDRDLQEIGIPLGPRKKILNYFSTRKNS [Q10N], the abundance fitness is reported as 0.011 ± 0.2. For TLEEDLKKLPLSEFFDIFEKEKVDKEALALCTDRDLQEIGIPLGPRKKILNYFSTRKNS [Q10P], the abundance fitness was -0.863 ± 0.093. Variant TLEEDLKKLRLSEFFDIFEKEKVDKEALALCTDRDLQEIGIPLGPRKKILNYFSTRKNS [Q10R] has an abundance fitness of -0.247 ± 0.052. For TLEEDLKKLTLSEFFDIFEKEKVDKEALALCTDRDLQEIGIPLGPRKKILNYFSTRKNS [Q10T], the abundance fitness was -0.241 ± 0.08. With TLEEDLKKLVLSEFFDIFEKEKVDKEALALCTDRDLQEIGIPLGPRKKILNYFSTRKNS [Q10V] the abundance fitness was -0.667 ± 0.055. TLEEDLKKLYLSEFFDIFEKEKVDKEALALCTDRDLQEIGIPLGPRKKILNYFSTRKNS [Q10Y] showed an abundance fitness of -0.191 ± 0.17. TLEEDLKKLQASEFFDIFEKEKVDKEALALCTDRDLQEIGIPLGPRKKILNYFSTRKNS [L11A] gave an abundance fitness of -0.882 ± 0.098. With TLEEDLKKLQCSEFFDIFEKEKVDKEALALCTDRDLQEIGIPLGPRKKILNYFSTRKNS [L11C] the abundance fitness was -0.462 ± 0.088. TLEEDLKKLQESEFFDIFEKEKVDKEALALCTDRDLQEIGIPLGPRKKILNYFSTRKNS [L11E] showed an abundance fitness of -0.856 ± 0.088. With TLEEDLKKLQFSEFFDIFEKEKVDKEALALCTDRDLQEIGIPLGPRKKILNYFSTRKNS [L11F] the abundance fitness was -1.05 ± 0.17.
